Measured values published in US20180117174A1 (GANYMED PHARMACEUTICALS, published 2018).
Numbering of substitutions follows the chain as printed.

Assays:
[1] = biological target: T1, human claudin 18 splice variant 2 (CLDN18.2) (human); experiment: flow cytometry, HEK293 cells stably expressing CLDN18.2; ProteinL-FITC detection; binding assay 4; normalized to IMAB362
T1 construct: also called claudin 18 isotype 2
Procedure: (§1) 100 μl of the cell suspension per well (correspond to 2×10⁵ cells/well) were transferred to a round bottom 96-well microtiter plate. […] The cells were centrifuged for 1 min at 1500 rpm and the supernatant was discarded. […] After incubation, 100 μl FACS buffer were added to each sample, the cells were centrifuged for 1 min at 1500 rpm and the supernatant was discarded. The washing step with FACS buffer was repeated twice. Finally, the cells were resuspended in 100 μl FACS buffer and binding was determined using a BD FACS Array Bioanalyzer.

[2] = biological target: T1, human claudin 18 splice variant 2 …; experiment: flow cytometry, HEK293 cells stably expressing CLDN18.2; APC-conjugated secondary antibody; binding assay 3
Procedure: as §1

[3] = biological target: T1, human claudin 18 splice variant 2 …; experiment: flow cytometry (Table 6); ProteinL-FITC detection
Procedure: as §1

[4] = biological target: T1, human claudin 18 splice variant 2 …; experiment: flow cytometry, HEK293 cells stably expressing CLDN18.2; ProteinL-FITC detection; binding assay 4
[5] = biological target: T1, human claudin 18 splice variant 2 …; experiment: cell-based or functional assay
[6] = biological target: T1, human claudin 18 splice variant 2 …; experiment: flow cytometry (Table 6); ProteinL-FITC detection; normalized to IMAB362
Procedure: as §1

[7] = biological target: T1, human claudin 18 splice variant 2 …; experiment: flow cytometry, HEK293 cells stably expressing CLDN18.2; APC-conjugated secondary antibody; binding assay 3; normalized to IMAB362
Procedure: as §1

[8] = biological target: T1, human claudin 18 splice variant 2 …; experiment: flow cytometry (Table 6); ProteinL-FITC detection; binding assay 2
Procedure: as §1
(§2) Antibodies marked with the same number (1 or 2) were tested in the same binding assay.

[9] = biological target: T1, human claudin 18 splice variant 2 …; experiment: flow cytometry (Table 6); ProteinL-FITC detection; binding assay 2; normalized to IMAB362
[10] = biological target: T1, human claudin 18 splice variant 2 …; experiment: flow cytometry on NUGC-4 10cE8 cells (endogenous CLDN18.2), antibody up to 20 µg/ml
Procedure: as §1
Binding properties were tested at different antibody concentrations in a range of 0.1 to 20 μg/ml (FIG. 4, Table 8).

[11] = biological target: T1, human claudin 18 splice variant 2 …; experiment: flow cytometry on NUGC-4 10cF7-5 sort 3a cells (endogenous CLDN18.2), second assay
[12] = biological target: T1, human claudin 18 splice variant 2 …; experiment: cell-based or functional assay; remark: listed apart in the source
[13] = biological target: T1, human claudin 18 splice variant 2 …; experiment: flow cytometry on NCI-N87~CLDN18.2 cells, antibody up to 20 µg/ml
Procedure: as §1

[14] = biological target: T1, human claudin 18 splice variant 2 …; experiment: flow cytometry on NUGC-4 10cE8 cells (endogenous CLDN18.2), second assay
[15] = biological target: T1, human claudin 18 splice variant 2 …; experiment: cell-based or functional assay; remark: listed apart in the source
[16] = biological target: T1, human claudin 18 splice variant 2 …; experiment: flow cytometry on HEK293~CLDN18.2 cells, antibody up to 20 µg/ml
Procedure: Binding was analyzed by flow cytometry at antibody concentrations up to 20 μg/ml. Data points (n=2 replicates) are depicted as mean±SD.
as §1
The binding specificity was analyzed by flow cytometry using HEK293 transfectants engineered to overexpress human CLDN18.2 or the highly homologous protein human CLDN18.1.

[17] = biological target: T1, human claudin 18 splice variant 2 …; experiment: flow cytometry on NUGC-4 10cF7-5 sort 3a cells (endogenous CLDN18.2), antibody up to 20 µg/ml
Procedure: as §1

[18] = biological target: T1, human claudin 18 splice variant 2 …; experiment: flow cytometry on BxPC-3~CLDN18.2 cells, second assay
[19] = biological target: T1, human claudin 18 splice variant 2 …; experiment: cell-based or functional assay; remark: listed apart in the source
[20] = biological target: T1, human claudin 18 splice variant 2 …; experiment: flow cytometry on BxPC-3~CLDN18.2 cells, antibody up to 20 µg/ml
Procedure: as §1

[21] = biological target: T1, human claudin 18 splice variant 2 …; experiment: flow cytometry (Table 6); APC-conjugated secondary antibody; binding assay 1
Procedure: as §1, §2

[22] = biological target: T1, human claudin 18 splice variant 2 …; experiment: flow cytometry (Table 6); APC-conjugated secondary antibody; binding assay 1; normalized to IMAB362
Procedure: as §1

[23] = biological target: human claudin 18 splice variant 1 (CLDN18.1) (human, UniProt P56856 1-261); experiment: flow cytometry, HEK293 cells stably expressing CLDN18.1 (column 'CLDN18.1 reactive')

B1: mu mAB362 (mouse IgG1) (antibody, V domains shown)
VH: QVQLQQPGAELVRPGASVKLSCKASGYTFTSYWINWVKQRPGQGLEWIGNIYPSDSYTNYNQKFKDKATLTVDKSSSTAYMQLSSPTSEDSAVYYCTRSWRGNSFDYWGQGTTLTVSS
VL: DIVMTQSPSSLTVTAGEKVTMSCKSSQSLLNSGNQKNYLTWYQQKPGQPPKLLIYWASTRESGVPDRFTGSGSGTDFTLTISSVQAEDLAVYYCQNDYSYPFTFGSGTKLEIK
notes: also called mu muAB362 (IgG1)
EC50 normalized [%] [1]: 345% | Max. binding normalized [%] [1]: 111% | EC50 [2]: 2.24 µg/mL | Max. binding [MFI] [2]: 8830 MFI | EC50 [3]: 0.654 µg/mL | EC50 [4]: 4.29 µg/mL | Max. binding [MFI] [4]: 5910 MFI | Cell viability EC50 [%] normalized to IMAB362, Fab-ZAP endocytosis assay [5]: 17% | Cell viability EC50 [ng/ml], Fab-ZAP endocytosis assay on HEK293~CLDN18.2 cells [5]: 2.2 ng/mL | Max. viability reduction normalized [%], Fab-ZAP endocytosis assay [5]: 66% | EC50 normalized [%] [6]: 53% | EC50 normalized [%] [7]: 343% | Max. binding normalized [%] [7]: 111%

B2: chim mAB294 (antibody, V domains shown)
VH: QIQLVQSGPELKKPGETVKISCKASGYTFTNYGMNWVKQAPGKGLKWMGWINTNTGEPTYAEEFKGRFAFSLETSASTAYLQINNLKNEDTATYFCARLGFGNAMDYWGQGTSVTVSS
VL: DIVMTQSPSSLTVTAGEKVTMSCKSSQSLLNSGNQKNYLTWYQQKPGQPPKLLIYWASTRESGVPDRFTGSGSGTDFTLTISSVQAEDLAVYYCQNDYSYPLTFGAGTKLELKR
EC50 [8]: 5.7 µg/mL | EC50 normalized [%] [9]: 459% | Cell viability EC50 [%] normalized to IMAB362, Fab-ZAP endocytosis assay [5]: 91% | Cell viability EC50 [ng/ml], Fab-ZAP endocytosis assay on HEK293~CLDN18.2 cells [5]: 10 ng/mL | Max. viability reduction normalized [%], Fab-ZAP endocytosis assay [5]: 86%

B3: IMAB362-DM4 (antibody, human IgG1, kappa, V domains shown)
VH: B1 VH
VL: B2 VL with L102F, A106S, L112I
modifications: DM4 coupled via SPDB linker to primary amines (lysine side chains or N-terminus) of the antibody; drug to antibody ratio 3.2; sites not stated
EC50 [10]: 3.05 µg/mL | EC50 [11]: 3.91 µg/mL | CDC EC50 [ng/ml], KATO-III FGF-BP#12 adM p3151#25 cells [12]: 6440 ng/mL | CDC EC50 [ng/ml], NUGC-4 10cF7_5 sort3a p3151#10 cells [12]: 15800 ng/mL | EC50 [13]: 0.274 µg/mL | EC50 [14]: 7.49 µg/mL | ADCC EC50 [ng/ml], NUGC-4 10cF7_5 sort3a p3151#10 cells, PBMC of Donor 1 [15]: 1150 ng/mL | ADCC EC50 [ng/ml], NUGC-4 10cF7_5 sort3a p3151#10 cells, PBMC of Donor 2 [15]: 217 ng/mL | EC50 [16]: 1.47 µg/mL | EC50 [17]: 2.6 µg/mL | EC50 [18]: 0.425 µg/mL | EC50 [ng/ml] of reduction of cell viability (XTT, 72 h), BxPC-3~CLDN18.2 cells [19]: 43 ng/mL | EC50 [ng/ml] of reduction of cell viability (XTT, 72 h), BxPC-3~CLDN18.2 cells, second assay [19]: 54 ng/mL | EC50 [ng/ml] of reduction of cell viability (XTT, 72 h), NCI-N87~CLDN18.2 cells [19]: 75 ng/mL | EC50 [ng/ml] of reduction of cell viability (XTT, 72 h), NUGC-4 10cE8 cells [19]: 372 ng/mL | EC50 [ng/ml] of reduction of cell viability (XTT, 72 h), NUGC-4 10cF7-5 sort 3a cells [19]: 155 ng/mL | EC50 [20]: 0.507 µg/mL

B4: IMAB362-vcMMAE (antibody, human IgG1, kappa, V domains shown)
VH: B1 VH
VL: B2 VL with L102F, A106S, L112I
modifications: vcMMAE (Val-Cit linker) coupled to sulfhydryl groups set on lysine amines with 2-iminothiolane; drug to antibody ratio 4.5; sites not stated
notes: also called MMAE-conjugated IMAB362
EC50 [10]: 2.83 µg/mL | EC50 [11]: 4.05 µg/mL | CDC EC50 [ng/ml], KATO-III FGF-BP#12 adM p3151#25 cells [12]: 7240 ng/mL | CDC EC50 [ng/ml], NUGC-4 10cF7_5 sort3a p3151#10 cells [12]: 28300 ng/mL | EC50 [13]: 0.103 µg/mL | EC50 [14]: 5.46 µg/mL | ADCC EC50 [ng/ml], NUGC-4 10cF7_5 sort3a p3151#10 cells, PBMC of Donor 1 [15]: 1080 ng/mL | ADCC EC50 [ng/ml], NUGC-4 10cF7_5 sort3a p3151#10 cells, PBMC of Donor 2 [15]: 275 ng/mL | EC50 [16]: 1.59 µg/mL | EC50 [17]: 2.52 µg/mL | EC50 [18]: 0.261 µg/mL | EC50 [ng/ml] of reduction of cell viability (XTT, 72 h), BxPC-3~CLDN18.2 cells [19]: 48 ng/mL | EC50 [ng/ml] of reduction of cell viability (XTT, 72 h), BxPC-3~CLDN18.2 cells, second assay [19]: 43 ng/mL | EC50 [ng/ml] of reduction of cell viability (XTT, 72 h), NCI-N87~CLDN18.2 cells, second assay [19]: 180 ng/mL | EC50 [ng/ml] of reduction of cell viability (XTT, 72 h), NUGC-4 10cE8 cells [19]: 631 ng/mL | EC50 [ng/ml] of reduction of cell viability (XTT, 72 h), NUGC-4 10cF7-5 sort 3a cells [19]: 338 ng/mL | EC50 [20]: 0.183 µg/mL

B5: mu mAB362 (mouse IgG2a) (antibody, V domains shown)
VH: B1 VH
VL: B1 VL
notes: Mouse IgG2a form of mu mAB362; also called mu muAB362 (IgG2a)
EC50 normalized [%] [1]: 53% | EC50 [3]: 4.29 µg/mL | EC50 [4]: 0.654 µg/mL | Max. binding [MFI] [4]: 4880 MFI | Cell viability EC50 [%] normalized to IMAB362, Fab-ZAP endocytosis assay [5]: 231% | Cell viability EC50 [ng/ml], Fab-ZAP endocytosis assay on HEK293~CLDN18.2 cells [5]: ~30 ng/mL | Max. viability reduction normalized [%], Fab-ZAP endocytosis assay [5]: 66% | EC50 normalized [%] [6]: 345%

B6: chim mAB308 (antibody, V domains shown)
VH: QVQLQQSGPELVKPGASVKMSCKASGYTFTDYVISWVKQRTGQGLEWIGEIYPGSGSTYYNEKFKGKATLTADKSSNTAYMQLSSLTSEDSAVYFCARGVLLRAMDYWGQGTSVTVSS
VL: DIVMSQSPSSLAVSAGEKVTMSCKSSQSLLNSRTRKNYLAWYQQKPGQSPKLLIYWASTRESGVPDRFTGSGSGTDFTLTISSVQAEDLAVYYCKQSYNLYTFGGGTKLEIKR
EC50 [21]: 18.9 µg/mL | Max. binding [MFI] [21]: 15000 MFI | EC50 normalized [%] [22]: 3240% | Max. binding normalized [%] [22]: 81%

B7: chim mAB62 (antibody, V domains shown)
VH: QVQLQQSGAELMKPGASVKISCKATGYTFSSYWIEWVKQRPGHGLEWIGEILPGSGSTNYNEKFKGKATFTADTSSNTAYMQLSSLTSEDSAVYYCARYDYPWFAYWGQGTLVTVSA
VL: QIVLTQSPAIMSASPGEKVTITCSASSSVSYMHWFQQKPGTSPKLWIYSTSNLASGVPARFSGSGSGTSYSLTISRMEAEDAATYYCQQRSSYPPTFGGGTKLEIKR
EC50 [21]: 32.3 µg/mL | Max. binding [MFI] [21]: 4080 MFI | EC50 normalized [%] [22]: 5540% | Max. binding normalized [%] [22]: 22%

B8: chim mAB279 (antibody, V domains shown)
VH: QVQLQQSGAELARPGASVKLSCKASGYTFTDYYINWVKQRTGQGLEWIGEIYPGSGNTYYNEKFKGKATLTADKSSSTAYMQLSSLTSEDSAVYFCARSYGAFDYWGQGTTLTVSS
VL: DIVMTQSQKFMSTSVGDRVSITCKASQNVRTAVAWYQQKPGQSPKALIYLASNRHTGVPDRFTGSGSGTDFTLTISNVQSEDLADYFCLQHWNYPLTFGGGTKLEIKR
EC50 [21]: 60 µg/mL | Max. binding [MFI] [21]: 4390 MFI | EC50 normalized [%] [22]: 10300% | Max. binding normalized [%] [22]: 24%

B9: mu mAB62 (antibody, mouse IgG2a, V domains shown)
VH: B7 VH
VL: QIVLTQSPAIMSASPGEKVTITCSASSSVSYMHWFQQKPGTSPKLWIYSTSNLASGVPARFSGSGSGTSYSLTISRMEAEDAATYYCQQRSSYPPTFGGGTKLEIK
notes: mouse IgG2a kappa
EC50 [2]: 27.9 µg/mL | Max. binding [MFI] [2]: 2800 MFI | binding result [23]: no binding | EC50 normalized [%] [7]: 4280% | Max. binding normalized [%] [7]: 35%

B10: mu mAB294 (antibody, V domains shown)
VH: B2 VH
VL: B1 VL with F102L, S106A, I112L
notes: Tied by its number
EC50 [2]: 0.348 µg/mL | Max. binding [MFI] [2]: 989 MFI | binding result [23]: no binding | EC50 normalized [%] [7]: 53% | Max. binding normalized [%] [7]: 12%

B11: mu mAB279 (antibody, mouse IgG2a, V domains shown)
VH: B8 VH
VL: DIVMTQSQKFMSTSVGDRVSITCKASQNVRTAVAWYQQKPGQSPKALIYLASNRHTGVPDRFTGSGSGTDFTLTISNVQSEDLADYFCLQHWNYPLTFGGGTKLEIK
notes: mouse IgG2a kappa
EC50 [2]: 0.027 µg/mL | Max. binding [MFI] [2]: 118 MFI | binding result [23]: no binding | EC50 normalized [%] [7]: 4% | Max. binding normalized [%] [7]: 1%
